Patent publication US20200181597A1, “Composition and Application of Arginine-depleting Agents for Cancer, Obesity, Metabolic Disorders, and Related Complications and Comorbidities” (THE HONG KONG POLYTECHNIC UNIVERSITY, priority 2018, published 2020)

Key:
4T1 cells = assay: Trans-well migration and invasion assay; assay type: cell-based, mouse; settings: 1 U/mL, 20 h
Procedure: (§1) Breast cancer cell lines (human MDA-MB-231 cells and mouse 4T1 cells) were used in these studies. Both migration assay and invasion assay were performed in 24 wells Costar (Corning) Trans-well system (polycarbonate membrane inserts, pore size 8.0 μm). Before the assay, the cells were cultivated in appropriate serum free medium for at least 24 h. One day before seeding cells to the upper chambers, 100 μL diluted matrigel was added to the upper chambers of the inserts for invasion assay. Serum free medium (100 μL) was added to the upper chamber used for migration assay. The 24 well plates were incubated in the incubator for overnight. The next day, cells were trypsinized and counted. In the studies, 3×10^4 cells of 4T1 or 5×10^4 cells of MDA-MB-231, with 200 μL appropriate serum free medium, were seeded into the upper chambers. Appropriate complete medium (750 μL) was added to the lower chambers. For the drug treatment group, 1 U/mL His-rhArg (SEQ ID NO: 101) was added to both chambers. The 24 well plates were incubated at 37° C. humidified atmosphere with 5% CO2 for 20 h (4T1 cells) or 24 h (MDA-MB-231 cells).
(§2) After incubation, the medium in the upper chambers was removed. The trans-well inserts were washed with 1×PBS twice. Cold 100% methanol was added to both upper chambers and lower chambers for 10 min to fix the cells. The inserts were washed with 1×PBS for two times. […]

MCF-7 cancer cells = assay: cells; assay type: cell-based, human; settings: MCF-7, single agent
Procedure: (§3) Breast cancer cell lines (e.g. human MCF-7 and MDA-MB-231 cells) were used in these studies. Cancer cells (5×10^3 cells) were seeded in 96-well plates (TPP) with […] complete medium. The plates were incubated in incubator overnight and the cells were allowed to adhere to the plates. […] Each dosage was triplicated in 3 wells to obtain the average change of cell viability. […] The plates were put back into the incubator and further incubated for 4 h. To dissolve the insoluble compound, formazan, formed by MTT, 100 μl of 10% SDS in 0.01 M HCl was added. The plates were incubated at 37° C. overnight. The color change was measured by spectrophotometer at 570 nm. Control set up (without any drug) was used as base to calculate percentage of cell viability which was used to plot the dose response curve by the software Prism 6.0 (GraphPad) to find the IC50 values. […] CalcuSyn software (Biosoft) was used for calculating the CI values.

[1] = test system: MDA-MB-231 breast cancer cells; assay: cells; assay type: cell-based, human; settings: MDA-MB-231, single agent
Procedure: as §3

MDA-MB-231 cells = assay: Trans-well migration and invasion assay; assay type: cell-based, human; settings: 1 U/mL, 24 h
Procedure: as §1, §2

IC50 (MCF-7 cancer cells): 0.7869 U/mL
IC50 [1]: 0.9522 U/mL
B1: His-rhArg: recombinant human arginase with His tag, SEQ ID NO: 101 (protein)
chain: MHHHHHHMSAKSRTIGIIGAPFSKGQPRGGVEEGPTVLRKAGLLEKLKEQECDVKDYGDLPFADIPNDSPFQIVKNPRSVGKASEQLAGKVAEVKKNGRISLVLGGDHSLAIGSISGHARVHPDLGVIWVDAHTDINTPLTTTSGNLHGQPVSFLLKELKGKIPDVPGFSWVTPCISAKDIVYIGLRDVDPGEHYILKTLGIKYFSMTEVDRLGIGKVMEETLSYLLGRKKRPIHLSFDVDGLDPSFTPATGTPVVGGLTYREGLYITEEIYKTGLLSGLDIMEVNPSLGKTPEEVTRTVNTAVAITLACFGLAREGNHKPIDYLNPPK
modifications: His tag; His-rhArg, Synthesized in Lab
number of cancer cells that can migrate and invade via the transwell inserts (4T1 cells): decreased
number of cancer cells that can migrate and invade via the transwell inserts (MDA-MB-231 cells): decreased
